Measured values published in publication PMC7719688.

Biological target: T1, ArcA-His6 (acetyl phosphate present or absent) (Escherichia coli K1 Rs218 (O18:H7:K1)) (UniProt P0A9Q1)
T1 sequence: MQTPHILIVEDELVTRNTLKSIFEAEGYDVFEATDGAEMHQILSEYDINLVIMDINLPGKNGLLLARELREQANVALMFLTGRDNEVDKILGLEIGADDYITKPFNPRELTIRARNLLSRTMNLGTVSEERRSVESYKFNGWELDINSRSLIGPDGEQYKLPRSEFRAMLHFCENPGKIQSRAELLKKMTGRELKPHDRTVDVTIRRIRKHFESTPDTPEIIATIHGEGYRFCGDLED
Test: EMSA
Details: 10 mM Tris-HCl pH 7.4, 50 mM KCl, 0.1 mM EDTA, 0.2 mM DTT

Row | Sequence | binding (+/- 30 mM acetyl phosphate, 37 C 30 min, 6% PAGE in 0.5x TBE, GelRed stain) | binding ([…])
1 | ACGAACTGTTCACCGCCACTCGCGGTCAGGGCGCACAGCTGAACGGCTACCGTCTGCGCGGCAGCACCGCTCGCGATCTCGACGGTACTATTCTGGCGACCGGCTTCCCGTTCAAAGCAAAACAGTACGCCACTACCTACATCAACATCGTCGGCA (double strand) [suhB gene fragment] | no binding | –
2 | ATTTGGTTGTAACACGGCGTATGGCACATGCGTCGTTAGCGGTCTGGGGACGTTAAAGGGGACAATCCACTCCTTGCTCGAGCAGACAAACCAGGTAGCCGGAATGTGCAAGTCAATGAGGATGCTGATAAGACGCCTAACCAGCGTGGCGATTCGGTTTGACGCCTGGGAAGAGACCAGGGTGCAACGATGAGGGCATTTATGGAACCGCGACAAAGTGTGGTGCCGTAACTGGCTAAGTGCTCTCAGC (double strand) [sRNA-17 promoter (PsRNA-17)] | – | binds
